Experiment [1] deals with OX40 human/mouse chimera 1544 (human; mouse) (UniProt P47741). Put plainly: FACS, 293-F transfectants; MFI/isotype control. For orientation: In flow cytometry, cells or beads pass a laser one at a time.
Experiment [2] has as its target CD137 human/mouse chimera 1550 (human; mouse) (UniProt P20334). In words: FACS, 293-F transfectants; MFI/isotype, normalized to full-length CD137.

Chain of OX40 human/mouse chimera 1544 (human; mouse) (P47741 other isoform, or with tags, fused parts or gaps mutant limits assumed): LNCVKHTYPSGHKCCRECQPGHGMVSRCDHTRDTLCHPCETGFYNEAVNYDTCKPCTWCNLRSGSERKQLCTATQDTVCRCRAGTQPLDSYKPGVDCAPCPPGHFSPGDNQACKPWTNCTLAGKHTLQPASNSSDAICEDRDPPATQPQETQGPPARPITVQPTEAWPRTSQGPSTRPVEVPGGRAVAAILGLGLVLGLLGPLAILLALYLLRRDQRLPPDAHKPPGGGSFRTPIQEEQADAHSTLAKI
Chain of CD137 human/mouse chimera 1550 (human; mouse) (P20334 other isoform, or with tags, fused parts or gaps mutant limits assumed): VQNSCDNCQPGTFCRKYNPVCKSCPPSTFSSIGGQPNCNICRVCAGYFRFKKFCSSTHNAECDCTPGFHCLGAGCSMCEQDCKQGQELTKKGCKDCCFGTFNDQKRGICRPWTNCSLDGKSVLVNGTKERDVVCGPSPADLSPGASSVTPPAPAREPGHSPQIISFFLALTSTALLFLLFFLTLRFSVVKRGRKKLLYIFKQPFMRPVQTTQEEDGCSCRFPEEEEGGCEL

B1: anti-OX40 antibody 1170/1171 (antibody, V domains shown)
VH: EVQLLESGGGLVQPGGSLRLSCAASGFTFGGYYMSWVRQAPGKGLEWVSYIPGSGGSTYYADSVKGRFTISRDNSKNTLYLQMNSLRAEDTAVYYCARYDYYWMDYWGQGTLVTVSS
VL: DIQMTQSPSSLSASVGDRVTITCRASQSISSYLNWYQQKPGKAPKLLIYAASSLQSGVPSRFSGSGSGTDFTLTISSLQPEDFATYYCQQGHGSYPHTFGQGTKLEIK
In experiment [1], B1 registered a relative MFI of 2.

B2: anti-CD137 antibody 1204/1205 (antibody, IgG1, V domains shown)
VH: EVQLLESGGGLVQPGGSLRLSCAASGFTFSSYYMGWVRQAPGKGLEWVSGIGSYYGYTGYADSVKGRFTISRDNSKNTLYLQMNSLRAEDTAVYYCARAYYDYNYYYAYFDYWGQGTLVTVSS
VL: DIQMTQSPSSLSASVGDRVTITCRASQSISSYLNWYQQKPGKAPKLLIYAASSLQSGVPSRFSGSGSGTDFTLTISSLQPEDFATYYCQQSVPHYPFTFGQGTKLEIK
On to B2, for which the relative binding in experiment [2] was determined as 0.07.
